B1: human AFF4-THD (902-1163), wild type [human] / itself (parent)
chain: RRTKLVFDDRNYSADHYLQEAKKLKHNADALSDRFEKAVYYLDAVVSFIECGNALEKNAQESKSPFPMYSETVDLIKYTMKLKNYLAPDATAADKRLTVLCLRCESLLYLRLFKLKKENALKYSKTLTEHLKNSYNNSQAPSPGLGSKAVGMPSPVSPKLSPGNSGNYSSGASSASASGSSVTIPQKIHQMAASYVQVTSNFLYATEIWDQAEQLSKEQKEFFAELDKVMGPLIFNASIMTDLVRYTRQGLHWLRQDAKLIS
B2: AFF1-THD (953-1210), wild type [not stated] / itself (parent)
chain: GKPQVKFDKQQADLHMREAKKMKQKAELMTDRVGKAFKYLEAVLSFIECGIATESESQSSKSAYSVYSETVDLIKFIMSLKSFSDATAPTQEKIFAVLCMRCQSILNMAMFRCKKDIAIKYSRTLNKHFESSSKVAQAPSPCIASTGTPSPLSPMPSPASSVGSQSSAGSVGSSGVAATISTPVTIQNMTSSYVTITSHVLTAFDLWEQAEALTRKNKEFFARLSTNVCTLALNSSLVDLVHYTRQGFQQLQELTKTP

In one experiment the parent is B1. The experiment can be described thus: analytical gel filtration. The conditions noted are these: with itself; read off a plot. (In general: In gel filtration, larger molecules generally elute earlier.)
Regarding RRTKLVFDDRNYSADHYLQEAKKLKHNADALSDRFEKAVYYLDAVVSFIECGNALEKNAQESKSPFPMYSETVDLIKYTMKLKNYLAPDATAADKRLTVLCLRCESLLYLRLFKLKKENALKYSKTLTEHLKNSYNNSQAPSPGLGSKAVGMPSPVSPKLSPGNSGNYSSGASSASASGSSVTIPQKIHQMAASAVQVTSNFLYATEIWDQAEQLSKEQKEFFAELDKVMGPLIFNASIMTDLVRYTRQGLHWLRQDAKLIS [chain 1 Y195A], the screen value is 10.9 mL.
As to RRTKLVFDDRNYSADHYLQEAKKLKHNADALSDRFEKAVYYLDAVVSFIECGNALEKNAQESKSPFPMYSETVDLIKYTMKLKNYLAPDATAADKRLTVLCLRCESLLYLRLAKLKKENALKYSKTLTEHLKNSYNNSQAPSPGLGSKAVGMPSPVSPKLSPGNSGNYSSGASSASASGSSVTIPQKIHQMAASYVQVTSNFLYATEIWDQAEQLSKEQKEFFAELDKVMGPLIFNASIMTDLVRYTRQGLHWLRQDAKLIS [chain 1 F113A], the screen value is 10.6 mL.
The same measure, in the same setting: then RRTKLVFDDRNYSADHYLQEAKKLKHNADALSDRFEKAVYYLDAVVSFIECGNALEKNAQESKSPFPMYSETVDLIKYTMKLKNYLAPDATAADKRLTVLCLRCESLLYLRLAKLKKENALKYSKTLTEHLKNSYNNSQAPSPGLGSKAVGMPSPVSPKLSPGNSGNYSSGASSASASGSSVTIPQKIHQMAASAVQVTSNFLYATEIWDQAEQLSKEQKEFFAELDKVMGPLIFNASIMTDLVRYTRQGLHWLRQDAKLIS [chain 1 F113A Y195A], with 10.8 mL.

In another experiment the parent is B1. The experiment can be described thus: sedimentation velocity analytical ultracentrifugation. The conditions noted are these: with itself.
Consider RRTKLVFDDRNYSADHYLQEAKKLKHNADALSDRFEKAVYYLDAVVSFIECGNALEKNAQESKSPFPMYSETVDLIKYTMKLKNYLAPDATAADKRLTVLCLRCESLLYLRLAKLKKENALKYSKTLTEHLKNSYNNSQAPSPGLGSKAVGMPSPVSPKLSPGNSGNYSSGASSASASGSSVTIPQKIHQMAASAVQVTSNFLYATEIWDQAEQLSKEQKEFFAELDKVMGPLIFNASIMTDLVRYTRQGLHWLRQDAKLIS [chain 1 F113A Y195A], for which the screen value came out at 28.9 kD.

Still in this experiment, the particulars now being: with itself; read off a plot.
RRTKLVFDDRNYSADHYLQEAKKLKHNADALSDRFEKAVYYLDAVVSFIECGNALEKNAQESKSPFPMYSETVDLIKYTMKLKNYLAPDATAADKRLTVLCLRCESLLYLRLAKLKKENALKYSKTLTEHLKNSYNNSQAPSPGLGSKAVGMPSPVSPKLSPGNSGNYSSGASSASASGSSVTIPQKIHQMAASAVQVTSNFLYATEIWDQAEQLSKEQKEFFAELDKVMGPLIFNASIMTDLVRYTRQGLHWLRQDAKLIS [chain 1 F113A Y195A]: the screen value is 2.2 S.

In a further experiment the parent is B2. The experiment can be described thus: analytical gel filtration. As to conditions: with itself; read off a plot.
GKPQVKFDKQQADLHMREAKKMKQKAELMTDRVGKAFKYLEAVLSFIECGIATESESQSSKSAYSVYSETVDLIKFIMSLKSFSDATAPTQEKIFAVLCMRCQSILNMAMFRCKKDIAIKYSRTLNKHFESSSKVAQAPSPCIASTGTPSPLSPMPSPASSVGSQSSAGSVGSSGVAATISTPVTIQNMTSSAVTITSHVLTAFDLWEQAEALTRKNKEFFARLSTNVCTLALNSSLVDLVHYTRQGFQQLQELTKTP [chain 1 Y193A]: the screen value stood at 9.5 mL.
On the same count and under the same terms, the figure for GKPQVKFDKQQADLHMREAKKMKQKAELMTDRVGKAFKYLEAVLSFIECGIATESESQSSKSAYSVYSETVDLIKFIMSLKSFSDATAPTQEKIFAVLCMRCQSILNMAMARCKKDIAIKYSRTLNKHFESSSKVAQAPSPCIASTGTPSPLSPMPSPASSVGSQSSAGSVGSSGVAATISTPVTIQNMTSSYVTITSHVLTAFDLWEQAEALTRKNKEFFARLSTNVCTLALNSSLVDLVHYTRQGFQQLQELTKTP [chain 1 F111A] is 9.4 mL; for GKPQVKFDKQQADLHMREAKKMKQKAELMTDRVGKAFKYLEAVLSFIECGIATESESQSSKSAYSVYSETVDLIKFIMSLKSFSDATAPTQEKIFAVLCMRCQSILNMAMARCKKDIAIKYSRTLNKHFESSSKVAQAPSPCIASTGTPSPLSPMPSPASSVGSQSSAGSVGSSGVAATISTPVTIQNMTSSAATITSHALTAFDLWEQAEALTRKNKEFFARLSTNVCTLALNSSLVDLVHYTRQGFQQLQELTKTP [chain 1 F111A Y193A V194A V200A] it is 10.5 mL.

Another experiment covers variants of B2. The experiment can be described thus: sedimentation velocity analytical ultracentrifugation. As to conditions: with itself.
In the case of GKPQVKFDKQQADLHMREAKKMKQKAELMTDRVGKAFKYLEAVLSFIECGIATESESQSSKSAYSVYSETVDLIKFIMSLKSFSDATAPTQEKIFAVLCMRCQSILNMAMARCKKDIAIKYSRTLNKHFESSSKVAQAPSPCIASTGTPSPLSPMPSPASSVGSQSSAGSVGSSGVAATISTPVTIQNMTSSAATITSHALTAFDLWEQAEALTRKNKEFFARLSTNVCTLALNSSLVDLVHYTRQGFQQLQELTKTP [chain 1 F111A Y193A V194A V200A], the screen value was determined as 27.2 kD.

The experiment is the same for the next values; noted with them: with itself; read off a plot.
Turning to GKPQVKFDKQQADLHMREAKKMKQKAELMTDRVGKAFKYLEAVLSFIECGIATESESQSSKSAYSVYSETVDLIKFIMSLKSFSDATAPTQEKIFAVLCMRCQSILNMAMARCKKDIAIKYSRTLNKHFESSSKVAQAPSPCIASTGTPSPLSPMPSPASSVGSQSSAGSVGSSGVAATISTPVTIQNMTSSAATITSHALTAFDLWEQAEALTRKNKEFFARLSTNVCTLALNSSLVDLVHYTRQGFQQLQELTKTP [chain 1 F111A Y193A V194A V200A], the screen value amounted to 2.2 S.

The values above are taken from paper PMC7026398, “Structural and functional insight into the effect of AFF4 dimerization on activation of HIV-1 proviral transcription” (Cell Discovery, 2020).
